Measured values as given in article PMC5444840.
Like-named read-outs stand apart in the source and are kept apart here.

Tests used:
Experiment in all cases: SPR; multi-cycle kinetics, Biacore X-100: rSgC or IgD amine-coupled on a CM4 chip; different chemokine concentrations at 30 ul/min, 180 s contact, 600 s dissociation, HBS-EP pH 7.4; global fit to a 1:1 Langmuir model
[1] = biological target: VZV gC IgD (amino acids P140 to V531, with the predicted immunoglobulin-like domains) (Varicella zoster virus, Dumas strain)
[2] = biological target: recombinant soluble VZV glycoprotein C ectodomain (VZV rSgC) (Varicella zoster virus, Dumas strain)
[3] = biological target: VZV gC IgD (amino acids P140 to V531, with the predicted immunoglobulin-like domains) (Varicella zoster virus, Dumas strain); remark: listed apart in the source
[4] = biological target: recombinant soluble VZV glycoprotein C ectodomain (VZV rSgC) (Varicella zoster virus, Dumas strain); remark: listed apart in the source

Sequence of recombinant soluble VZV glycoprotein C ectodomain (VZV rSgC) (Varicella zoster virus, Dumas strain) (P09256 54-562 limits assumed): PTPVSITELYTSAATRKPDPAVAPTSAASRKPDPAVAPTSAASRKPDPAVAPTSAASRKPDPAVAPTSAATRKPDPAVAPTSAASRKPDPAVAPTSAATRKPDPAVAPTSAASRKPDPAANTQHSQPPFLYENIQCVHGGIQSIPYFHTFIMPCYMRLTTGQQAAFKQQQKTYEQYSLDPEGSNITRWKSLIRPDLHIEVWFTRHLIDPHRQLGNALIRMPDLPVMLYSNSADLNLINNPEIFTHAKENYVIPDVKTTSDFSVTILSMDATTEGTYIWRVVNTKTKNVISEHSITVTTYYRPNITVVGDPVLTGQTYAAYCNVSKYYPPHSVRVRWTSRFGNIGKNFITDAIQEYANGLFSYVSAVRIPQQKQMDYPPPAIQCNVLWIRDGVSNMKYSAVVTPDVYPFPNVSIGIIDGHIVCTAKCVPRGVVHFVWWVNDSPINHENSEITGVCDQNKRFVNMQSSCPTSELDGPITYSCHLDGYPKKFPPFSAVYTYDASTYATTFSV
Sequence of VZV gC IgD (amino acids P140 to V531, with the predicted immunoglobulin-like domains) (Varicella zoster virus, Dumas strain) (P09256 171-562 limits assumed): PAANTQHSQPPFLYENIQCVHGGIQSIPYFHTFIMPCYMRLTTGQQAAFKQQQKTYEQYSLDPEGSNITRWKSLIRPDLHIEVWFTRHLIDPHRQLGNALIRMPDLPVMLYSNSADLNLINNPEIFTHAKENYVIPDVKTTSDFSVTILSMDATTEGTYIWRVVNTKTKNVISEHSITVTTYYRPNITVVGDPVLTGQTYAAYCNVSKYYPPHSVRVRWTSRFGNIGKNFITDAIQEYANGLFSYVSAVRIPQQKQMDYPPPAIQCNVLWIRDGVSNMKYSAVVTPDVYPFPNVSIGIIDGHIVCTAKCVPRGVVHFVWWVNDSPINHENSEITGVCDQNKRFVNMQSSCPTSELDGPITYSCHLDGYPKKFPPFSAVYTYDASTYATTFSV

Molecule: CCL13 (from UniProt Q99616 17-98) (ligand)
- Kd [1]: 0.299 nM
- koff [1]: 0.00389 s⁻¹
- kon [1]: 1.3e+07 M⁻¹ s⁻¹
- t(1/2) [1]: 2.97 min
- Kd [2]: 0.176 nM
- koff [2]: 0.00184 s⁻¹
- kon [2]: 1.04e+07 M⁻¹ s⁻¹
- t(1/2) [2]: 6.29 min

Molecule: CCL19 (from UniProt Q99731 22-98) (ligand)
- Kd [1]: 0.118 nM
- koff [1]: 0.00161 s⁻¹
- kon [1]: 1.37e+07 M⁻¹ s⁻¹
- t(1/2) [1]: 7.18 min
- Kd [2]: 0.138 nM
- koff [2]: 0.00212 s⁻¹
- kon [2]: 1.54e+07 M⁻¹ s⁻¹
- t(1/2) [2]: 5.46 min

Molecule: CCL2 (from UniProt P13500 24-99) (ligand)
- Kd [1]: 6.05 nM
- koff [1]: 0.0013 s⁻¹
- kon [1]: 214000 M⁻¹ s⁻¹
- t(1/2) [1]: 8.91 min
- Kd [2]: 5.84 nM
- koff [2]: 0.00101 s⁻¹
- kon [2]: 173000 M⁻¹ s⁻¹
- t(1/2) [2]: 11.4 min

B1: CXCL13 (ligand)
chain: VLEVYYTSLRCRCVQESSVFIPRRFIDRIQILPRGNGCPRKEIIVWKKNKSIVCVDPQAEWIQRMMEVLRKRSSSTLPVPVFKRKIP
- Kd [3]: 0.567 nM
- koff [3]: 0.0015 s⁻¹
- kon [3]: 2.64e+06 M⁻¹ s⁻¹
- t(1/2) [3]: 7.72 min
- Kd [4]: 0.422 nM
- koff [4]: 0.00251 s⁻¹
- kon [4]: 5.94e+06 M⁻¹ s⁻¹
- t(1/2) [4]: 4.61 min
